Test results as given in patent US10000771B2, “Nuclear targeting sequences” (Yeda Research and Development Co. Ltd., priority 2007, dated 2018).

B1: TEY-AAA: TEY mutated ERK2 that does not contain phosphates in this site (protein)
chain: MAAAAAAGPEMVRGQVFDVGPRYTNLSYIGEGAYGMVCSAYDNLNKVRVAIKKISPFEHQTYCQRTLREIKILLRFRHENIIGINDIIRAPTIEQMKDVYIVQDLMETDLYKLLKTQHLSNDHICYFLYQILRGLKYIHSANVLHRDLKPSNLLLNTTCDLKICDFGLARVADPDHDHTGFLAAAVATRWYRAPEIMLNSKGYTKSIDIWSVGCILAEMLSNRPIFPGKHYLDQLNHILGILGSPSQEDLNCIINLKARNYLLSLPHKNKVPWNRLFPNADSKALDLLDKMLTFNPHKRIEVEQALAHPYLEQYYDPSDEPIAEAPFKFDMELDDLPKEKLKELIFEETARFQPGYRS
modifications: left off: large carriers
B2: AAA-MEK1: GFP-MEK1 with residues 386-8 (TPT) replaced with Ala (protein, UniProt Q02750 1-393, looked up, variant T386A P387A T388A)
Dual specificity …: MPKKKPTPIQLNPAPDGSAVNGTSSAETNLEALQKKLEELELDEQQRKRLEAFLTQKQKVGELKDDDFEKISELGAGNGGVVFKVSHKPSGLVMARKLIHLEIKPAIRNQIIRELQVLHECNSPYIVGFYGAFYSDGEISICMEHMDGGSLDQVLKKAGRIPEQILGKVSIAVIKGLTYLREKHKIMHRDVKPSNILVNSRGEIKLCDFGVSGQLIDSMANSFVGTRSYMSPERLQGTHYSVQSDIWSMGLSLVEMAVGRYPIPPPDAKELELMFGCQVEGDAAETPPRPRTPGRPLSSYGMDSRPPMAIFELLDYIVNEPPPKLPSGVFSLEFQDFVNKCLIKNPAERADLKQLMVHAFIKRSDAEEVDFAGWLCSTIGLNQPSAAAHAAGV
modifications: GFP fusion
notes: GFP-MEK1 with residues 386-8 (TPT) replaced with Ala

Key:
SPS domain = test: SPS phosphorylation detected by anti pSPS Ab Western blot; assay type: cell-based; details: COS7 cells, stimulated with VOOH, TPA, EGF or TGFβ, immunoprecipitation and Western blot
Protocol: (§1) FIGS. 4A-4I are autoradiographs characterizing SPS phosphorylation using an Ab to the phosphorylated SPS domain. FIG. 4A illustrates an elevation of pSPS detection upon stimulation. COS cells were transfected with WT-GFP-ERK2. Twenty-four hr after transfection, the cells were serum-starved for 16 hr and subsequently treated with the general stimulator VOOH (V, 100 μM Na3VO4 and 200 μM H2O2, 15 min), TPA (T, 250 nM, 15 min), EGF (E, 50 ng/ml for 15 min), or left untreated (NT). The GFP-ERK2 was immunoprecipitated with anti GFP Ab, extensively washed, and the IP was then subjected to Western blotting with anti phospho SPS-ERK (αphoSPS-ERK) and anti general ERK (αgen-ERK) Abs. FIG. 4B is a time course of SPS phosphorylation. COS7 cells overexpressing WT-GFP-ERK2 were serum starved followed by EGF stimulation for the indicated time points. The lysates were then subjected to Western blot analysis as in FIG. 4A. […] SPS phosphorylation was detected using the anti pSPS Abs, and this was compared to the amount of genral ERKs detected by αgERK. […] SPS-phosphorylation was detected using αpSPS and αgERK Abs. […] The phosphorylation (^32P-ERK2) of ERK and its mutants was detected by autoradiography. […]
FIG. 9B is an autoradiograph illustrating that stimulation elevates pSPS phosphorylation of 2GFP-SPS construct. […] The total amount of immunoprecipitated 2GFP-SPS was detected with αGFP Ab. […]

Act-GST-ERK2 = target: T1, Act-GST-ERK2 (Rattus norvegicus, UniProt P63086); test: In vitro kinase assay with active GST-ERK2; assay type: biochemical; details: immunoprecipitated protein as substrate, relative to GFP-ERK2
T1 construct: made in house; host or cells: bacteria co-expressing active MEK1
Protocol: as §1, with “phosphorylation.” for “phosphorylation. COS7 cells overexpressing WT-GFP-ERK2 were serum starved followed by EGF stimulation for the indicated time points. The lysates were then subjected to Western blot analysis as in FIG. 4A.”
Some protein kinases downstream of MEKs that may be involved in the SPS phosphorylation are ERKs themselves (autophosphorylation) as their consensus phosphorylation site includes Ser/Thr followed by a Pro (Yoon and Seger, 2006, Growth Factors, 24, 21-44). […] As expected, ^32P incorporation to GFP-ERK2 was detected mainly when this protein was incubated with Act-ERK2. […]

CHO cells = test: Microscopy of MEK1-GFP constructs (subcellular localization); assay type: cell-based
Protocol: FIGS. 14A-14R are photomicrographs illustrating that the NTS motif regulates MEK1 shuttling into the nucleus. CHO cells overexpressing WT-GFP-MEK1 (WT), AAA-GFP-MEK1 (AAA-MEK) and EPE-GFP-MEK1 (EPE-MEK) were starved for 16 hr and treated with LMB (5 ng/ml, 1 hr; LMB), LMB (5 ng/ml, 1 hr)+TPA (250 nM, 15 min; LMB+TPA) or left un treated (NT). Subsequently the cells were fixed, stained with DAPI and visualized by a fluorescent microscope.
Immunofluorescence Microscopy. Cells were fixed (30 min in 3% paraformaldehyde in PBS or 10 min with ice-cold methanol), followed by 5-min permeabilization with 0.2% Triton X-100 in PBS (23° C.). The fixed cells were sequentially incubated with the appropriate Abs (45 min) followed by rhodamine-conjugated secondary Abs (45 min) and DAPI. Slides were visualized using a fluorescence microscope (Nikon, Japan) at 400× magnifications.
Other proteins that translocate into the nucleus upon stimulation are the MEKs [H. Jaaro, H. Rubinfeld, T. Hanoch, R. Seger, Proc. Natl. Acad. Sci. USA 94, 3742 (1997)]. […] This TPT sequence was also shown to be phosphorylated upon cellular stimulation [S. Matsuda, Y. Gotoh, E. Nishida, J Biol Chem 268, 3277 (Feb. 15, 1993)], and to be involved in protein-protein interaction that can determine subcellular localization [A. Nantel, K. Mohammad-Ali, J. Sherk, B. I. Posner, D. Y. Thomas, J Biol Chem 273, 10475 (Apr. 24, 1998). […]

T1 sequence (P63086 whole entry): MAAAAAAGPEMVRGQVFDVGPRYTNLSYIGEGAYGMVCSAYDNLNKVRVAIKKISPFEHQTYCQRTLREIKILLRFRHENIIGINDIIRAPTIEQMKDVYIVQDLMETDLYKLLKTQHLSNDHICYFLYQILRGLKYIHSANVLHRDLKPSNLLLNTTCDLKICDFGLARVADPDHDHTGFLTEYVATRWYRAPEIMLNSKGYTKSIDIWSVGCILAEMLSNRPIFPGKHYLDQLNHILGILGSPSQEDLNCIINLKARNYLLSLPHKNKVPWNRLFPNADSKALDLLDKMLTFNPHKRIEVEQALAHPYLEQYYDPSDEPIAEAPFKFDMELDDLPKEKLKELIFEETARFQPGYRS

| Molecule | SPS phosphorylation upon stimulation (anti pSPS Ab recognition) (SPS domain) | reduction of phosphorylation (32P incorporation) by Act-ERK2 (Act-GST-ERK2) [%] | nuclear accumulation after TPA stimulation (CHO cells; LMB 5 ng/ml + TPA 250 nM, 15 min) | nuclear translocation after leptomycin B (CHO cells; LMB 5 ng/ml, 1 hr) |
| --- | --- | --- | --- | --- |
| B1 | can still be recognize by the anti phosphoSPS Ab upon stimulation | ~25 |  |  |
| B2 |  |  | localized in the cytoplasm | abrogated |
